These are literature values, as cited in PMC10280637.

This data set concerns the target IL-17A (Homo sapiens) (UniProt Q16552).

Chain of IL-17A (Homo sapiens) (Q16552 24-155): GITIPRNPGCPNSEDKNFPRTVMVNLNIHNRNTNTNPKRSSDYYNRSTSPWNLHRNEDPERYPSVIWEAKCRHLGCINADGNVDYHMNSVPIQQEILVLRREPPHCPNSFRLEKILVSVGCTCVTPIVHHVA

What is called Kd is a measure of binding affinity in units of concentration. With Secukinumab, the Kd was 0.06 nM.
